This note sets out measurements from PMC10063552.

What all share (assay): enzyme inhibition assay (cleavage of a chromogenic substrate, fit to Morrison's tight binding equation); MMP-2ACT (0.6 nM), MMP-9CAT (3 nM) or MMP-14CAT (1 nM) incubated with 0-25 nM N-TIMP2 variant in 50 mM HEPES, 10 mM CaCl2, 0.05% Brij-35, 1 mM DTNB, pH 7.5, 1 h at 37 °C; then 100 µM chromogenic substrate, absorbance at 412 nm at 37 °C; Ki from three independent experiments

Experiment [1] addresses human MMP-9 catalytic domain (MMP-9CAT) (human) (UniProt P14780).
Experiment [2] has as its target activated MMP-2 (MMP-2ACT) (human).
The target in experiment [3] is human MMP-14 catalytic domain (MMP-14CAT) (human) (UniProt P50281).

As to “N-TIMP2-A70DOPA (from UniProt P16035 27-153) (domain or fragment)”, the Ki (usually a dissociation constant, usually derived from enzyme kinetics or from competition with a known ligand) in experiment [1] was 0.452 nM; in experiment [2] it was 0.785 nM; in experiment [3], 10.6 nM.

Take “N-TIMP2-A70HqAla (from UniProt P16035 27-153) (domain or fragment)”: the inhibition constant (Ki) in experiment [1] stood at 1.93 nM; in experiment [2], 16.7 nM; in experiment [3], 27.2 nM.

Consider “N-TIMP2-L100DOPA (from UniProt P16035 27-153) (domain or fragment)”, for which the Ki in experiment [1] came to 0.849 nM; in experiment [2], 1 nM; in experiment [3], 14.2 nM.

As for “N-TIMP2-S2DOPA (from UniProt P16035 27-153) (domain or fragment)”, the figures for the Ki in experiment [1], in experiment [2] and in experiment [3] were 0.623 nM, 3.14 nM and 14.6 nM, respectively.

For the substance “N-TIMP2-S2HqAla (from UniProt P16035 27-153) (domain or fragment)”, the Ki amounted to 70.4 nM in experiment [1], 97.7 nM in experiment [2] and 97.7 nM in experiment [3].

Turning to “N-TIMP2-S69DOPA (from UniProt P16035 27-153) (domain or fragment)”, the values for the Ki in experiment [1], in experiment [2] and in experiment [3] were 0.468 nM, 0.46 nM and 21.4 nM, respectively.

Take “N-TIMP2-S69HqAla (from UniProt P16035 27-153) (domain or fragment)”: the Ki in experiment [1] turned out to be 0.449 nM; in experiment [2], 0.606 nM; in experiment [3], 11.5 nM.

As to “N-TIMP2-Y36HqAla (from UniProt P16035 27-153) (domain or fragment)”, the Ki in experiment [1] stood at 0.543 nM; in experiment [2], 0.413 nM; in experiment [3], 4.72 nM.
